Here are results for three molecules from publication PMC5575267, “A novel function of cIAP1 as a mediator of CHIP-driven eIF4E regulation” (Scientific Reports, 2017).

For experiment [1], the target named is T1, GST-cIAP1 (human, UniProt Q13490 1-618).
T1 construct: also called GST-cIAP1 beads; source: bacteria, purified (cloned into pGEX4T-1)
Put plainly: pull-down; His-tag pull-down: eIF4E-6His beads pre-incubated with GST-cIAP1 (also in increasing amounts), then incubated with GST-CHIP or GST alone; WB with anti-GST antibody. To be noted: both partners purified.

Experiment [2] addresses T1, GST-cIAP1. Nature of the experiment: pull-down; GST pull-down: GST or GST fusion protein on glutathione beads incubated with 6His-tagged protein in 100 mM Tris pH 8.0, 100 mM NaCl, 2 mM EDTA, 5% glycerol, 2 h at 4 °C; WB with anti-His antibody. To be noted: both partners purified.

Residue numbers refer to the chain shown, from its start. Names and notes keep the numbering of the source.

T1 sequence (Q13490 whole entry): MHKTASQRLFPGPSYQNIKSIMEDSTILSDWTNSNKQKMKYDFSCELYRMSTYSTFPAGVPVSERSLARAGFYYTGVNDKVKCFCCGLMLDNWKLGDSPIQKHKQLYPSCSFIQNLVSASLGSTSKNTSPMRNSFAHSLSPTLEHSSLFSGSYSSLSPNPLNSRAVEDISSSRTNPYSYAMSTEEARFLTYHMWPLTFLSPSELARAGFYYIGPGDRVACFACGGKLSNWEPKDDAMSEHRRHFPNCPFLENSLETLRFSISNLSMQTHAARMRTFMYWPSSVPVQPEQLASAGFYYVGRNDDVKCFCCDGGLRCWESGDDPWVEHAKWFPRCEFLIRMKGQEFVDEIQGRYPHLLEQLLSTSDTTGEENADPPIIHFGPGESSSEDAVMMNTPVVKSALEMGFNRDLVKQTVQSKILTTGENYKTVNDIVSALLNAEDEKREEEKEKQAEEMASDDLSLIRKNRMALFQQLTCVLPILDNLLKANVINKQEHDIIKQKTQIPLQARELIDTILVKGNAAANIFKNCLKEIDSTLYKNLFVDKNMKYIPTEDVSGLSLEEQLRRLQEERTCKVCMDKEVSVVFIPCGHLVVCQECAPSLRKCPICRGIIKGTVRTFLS

B1: GST-CHIP WT (natural protein, UniProt Q9UNE7 1-303, looked up)
chain: MKGKEEKEGGARLGAGGGSPEKSPSAQELKEQGNRLFVGRKYPEAAACYGRAITRNPLVAVYYTNRALCYLKMQQHEQALADCRRALELDGQSVKAHFFLGQCQLEMESYDEAIANLQRAYSLAKEQRLNFGDDIPSALRIAKKKRWNSIEERRIHQESELHSYLSRLIAAERERELEECQRNHEGDEDDSHVRAQQACIEAKHDKYMADMDELFSQVDEKRKKRDIPDYLCGKISFELMREPCITPSGITYDRKDIEEHLQRVGHFDPVTRSPLTQEQLIPNLAMKEVIDAFISENGWVEDY
notes: source: bacteria, purified (cloned into pGEX4T-1)
B1: in the experiment with GST-cIAP1 [1], the binding result was “binds”.

B2: CHIP WT-6His (natural protein, UniProt Q9UNE7 1-303, looked up)
chain: B1 chain
notes: also called CHIP-6His (WT); source: bacteria, purified (cloned into pET 23a)
For the molecule B2, in the experiment with GST-cIAP1 [2], the binding result is on record as “binds”.

B3: CHIP K30A-6His (natural protein, UniProt Q9UNE7 1-303, looked up)
chain: B1 chain with K30A
notes: also called CHIP-6His (K30A); source: bacteria, purified (cloned into pET 23a)
Regarding B3, in the experiment with GST-cIAP1 [2], the binding result is “binds”.
